Reference: US20120045393A1 (priority 2009, published 2012)
Non-standard residues stand in square brackets, D forms with d. *: point of attachment. d1Nal = N[C@H](Cc1cccc2ccccc12)C(=O)O; DO3A10CM = not defined here; Nicotinoyl = O=C(c1cccnc1)*; dCfe4 = not defined here; azaGly = NNC(=O)O; Sar = CNCC(=O)O; iPr = CC(C)*

Columns and labels:
[1] = biological target: LHRH receptor (LHRH binding sites) on EFO-27 human ovarian cancer cells (human); assay: competition with [125I-Tyr8]BRU-2477 for binding to EFO-27 cells
EFO-27 cells = assay: Internalization/efflux studies in EFO-27 cells; type: cell-based, human; conditions: for Cell associated activity at 0 h % Intern / Cell associated activity at 2 h % Intern: internalized; for Cell associated activity at 0 h % Memb / Cell associated activity at 2 h % Memb: membrane bound; for Bound %: of added; for Bound: per well
Experimental: Internalization/Efflux Studies: The internalization and efflux studies were carried out following the general procedure. Basically, ^177Lu-LHRH II or ^125I-LHRH II ([^125I-Tyr^8]BRU-2477) (75 uL, 3.0 μCi/mL) was added to the EFO-27 or PC-3 cells. The cells were incubated for 40 min at 37° C. The unbound radioactivity was washed off (4×). Following addition of fresh medium, the cells were further incubated for up to 2 h. At various time points (15, 30, 60 & 120 min) the distribution of radioactivity (membrane-bound, internalized, and efflux) was determined
The internalization and efflux of several Lu-177 labeled LHRH II analogs in EFO-27 cells have been investigated. Basically, following pre-incubation of cells with ^177Lu-LHRH II samples, the binding buffer containing the ^177Lu was replaced with fresh media without complex. The extent of initial internalization (T=0), the amount of radioactive material that remained internalized and the efflux at 0-120 min were determined. The results are shown in FIGS. 21a-f and 22a-c and in Table 25.

[2] = tested on: LHRH binding sites on human ovarian cancer cells (EFO-27);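 note: Cell-associated radioactivity on confluent EFO-27 monolayers in 96-well plates, measured by microplate scintillation counting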
[3] = biological target: LHRH receptor (LHRH binding sites) on EFO-27 human ovarian cancer cells (human); assay: competition with [125I-Tyr8]BRU-2477, EFO-27 cells
[4] = biological target: LHRH binding sites on EFO-27 human ovarian cancer cells (human); assay: competition with [125I-Tyr8]BRU-2477 on EFO-27 cells
[5] = biological target: LHRH receptor (LHRH binding sites) on EFO-27 human ovarian cancer cells (human); assay: direct binding of 177Lu-labeled peptide to EFO-27 cells, single concentration

DO3A10CM-Adoa-Sar-His-Trp-Ser-His-Darg-Trp-Bpa4-Pro-azaGly-NH2 (Seq111) (peptide)
EC50 [1]: 3300 nM

N=C(N)NCCC[C@H](NC(=O)[C@@H](Cc1ccc2ccccc2c1)NC(=O)CN1CCN(CC(=O)O)CCN(CC(=O)O)CCN(CC(=O)O)CC1)C(=O)N[C@@H](Cc1c[nH]c2ccccc12)C(=O)N[C@@H](CO)C(=O)N[C@@H](Cc1c[nH]cn1)C(=O)N[C@H](CCCNC(=N)N)C(=O)N[C@@H](Cc1c[nH]c2ccccc12)C(=O)N[C@@H](Cc1ccc(C(=O)c2ccccc2)cc1)C(=O)N1CCC[C@H]1C(=O)NCCOCCN [BRU-2968, DO3A10CM-Dna12-Arg-Trp-Ser-His-Darg-Trp-Bpa4-Pro-Da15o3pt]
Cell associated activity at 0 h % Efflux (EFO-27 cells): 4.9%
Cell associated activity at 0 h % Intern (EFO-27 cells): 14.1%
Cell associated activity at 0 h % Memb (EFO-27 cells): 80.8%
Cell associated activity at 2 h % Efflux (EFO-27 cells): 52.9%
Cell associated activity at 2 h % Intern (EFO-27 cells): 9.0%
Cell associated activity at 2 h % Memb (EFO-27 cells): 38.1%
Bound % (EFO-27 cells): 23.59%
Bound (EFO-27 cells): 68.8 fmol
EC50 [2]: 240 nM

N=C(N)NCCC[C@@H](NC(=O)[C@H](Cc1c[nH]cn1)NC(=O)[C@H](CO)NC(=O)[C@H](Cc1c[nH]c2ccccc12)NC(=O)[C@H](Cc1c[nH]cn1)NC(=O)[C@@H](Cc1ccc2ccccc2c1)NC(=O)CN1CCN(CC(=O)O)CCN(CC(=O)O)CCN(CC(=O)O)CC1)C(=O)N[C@@H](Cc1c[nH]c2ccccc12)C(=O)N[C@@H](Cc1ccc(C(=O)c2ccccc2)cc1)C(=O)N1CCC[C@H]1C(=O)NNC(N)=O [BRU-2666]
Cell associated activity at 0 h % Efflux (EFO-27 cells): 5.5%
Cell associated activity at 0 h % Intern (EFO-27 cells): 43.6%
Cell associated activity at 0 h % Memb (EFO-27 cells): 50.3%
Cell associated activity at 2 h % Efflux (EFO-27 cells): 80.6%
Cell associated activity at 2 h % Intern (EFO-27 cells): 10.0%
Cell associated activity at 2 h % Memb (EFO-27 cells): 9.5%
Bound % (EFO-27 cells): 12.20%
Bound (EFO-27 cells): 25.0 fmol
EC50 [2]: 470 nM
times more potent than the comparator analog ([2]; BRU-2441 vs BRU-2439, BRU-2666 vs Sar1 analog, BRU-3072 vs Pro9 analog): 2

XRWSHXWXP (as printed: Sar-R-W-S-H-Darg-W-Bpa4-P-Maz4dahp17-DO3A10CM (C-terminal chelator)) [BRU-3045]
EC50 [3]: 210 nM
EC50 [1]: 210 nM

XRWSHXWXP (as printed: Sar-R-W-S-H-Darg-W-Bpa4-P-NHNH-DO3A10CM (C-terminal chelator)) [BRU-3074]
fold reduced binding against peptide 18 (BRU-3103) [4]: 5 to 6 fold
EC50 [1]: 1480 nM

B1: BRU-2795 (peptide)
peptide: GGHWSHXWXPX
modifications: as printed: DO3A10CM-Gly-Gly-His-Trp-Ser-His-Darg-Trp-Bpa4-Pro-azaGly-NH2 (first Gly is the linker)
EC50 [1]: 1370 nM

B2: ^177Lu-BRU-2613 (peptide)
peptide: DO3A10CM-G[Sar][dCfe4][d1Nal]S[Metyr][dK](Nicotinoyl)LK(iPr)P[dA]-NH2
modifications: reading uncertain; also: 177Lu complexed by DO3A10CM, printed as 177Lu-DO3A10CM-Gly-Sar-Dcfe4-Dnal1-Ser-Metyr-Dlys(Nic)-Leu-Lys(isp)-Pro-Dala-NH2
% Bound [5]: 0.17%

XHWSHXWXP (as printed: Sar-H-W-S-H-Darg-W-Bpa4-P-Dae-DO3A10CM (C-terminal chelator)) [BRU-3079]
EC50 [1]: 590 nM

B3: BRU-2717 (peptide)
peptide: GXHWSHXWXPX
modifications: DO3A10CM-Gly (linker) on N-terminus; AA1 Sar; AA6 Darg; AA8 Bpa4; AA10 azaGly-NH2
EC50 [4]: 1550 nM
EC50 [1]: 1530 nM

XRWSHXWXP (as printed: Sar-R-W-S-H-Darg-W-Bpa4-P-Ampip2-DO3A10CM (C-terminal chelator)) [BRU-3102]
EC50 [3]: 200 nM
EC50 [1]: 200 nM

B4: BRU-2727 (peptide)
peptide: XXHWSHXWXPX
modifications: as printed: DO3A10CM-Ambz4-Sar-His-Trp-Ser-His-Darg-Trp-Bpa4-Pro-azaGly-NH2 (Ambz4 is the linker)
EC50 [1]: 650 nM

XRWSHXWXP (as printed: Sar-R-W-S-H-Darg-W-Bpa4-P-Dabt14-DO3A10CM (C-terminal chelator)) [BRU-3041]
EC50 [3]: 360 nM
EC50 [1]: 360 nM

XRWSHXWXP (as printed: Sar-R-W-S-H-Darg-W-Bpa4-P-Da18o36oc-DO3A10CM (C-terminal chelator)) [BRU-3043]
EC50 [3]: 330 nM
EC50 [1]: 330 nM

XRWSHXWXP (as printed: Sar-R-W-S-H-Darg-W-Bpa4-P-Daprp13-DO3A10CM (C-terminal chelator)) [BRU-3076]
EC50 [1]: 750 nM

B5: BRU-2896 (peptide)
peptide: XHWSHXWXPX
modifications: as printed: DO3A10CM-Adoa-Adoa-Sar-His-Trp-Ser-His-Darg-Trp-Bpa4-Pro-azaGly-NH2 (Adoa-Adoa is the linker)
EC50 [1]: 3200 nM

XRWSHXWXP (as printed: Sar-R-W-S-H-Darg-W-Bpa4-P-M1daprp13-DO3A10CM (C-terminal chelator)) [BRU-3086]
fold reduced binding against peptide 18 (BRU-3103) [4]: 5 to 6 fold
EC50 [1]: 1020 nM

XHWSHXWXPX (as printed: DO3A10CM-Sar-His-Trp-Ser-His-Darg-Trp-Bpa4-Pro-azaGly-NH2) [BRU-2443]
EC50 [4]: 950 nM
fold improvement of EC50 against the Tyr8 analog (BRU-2758) [4]: 10 fold
EC50 [1]: 950 nM

XRWSHXWXP (as printed: Dnal2-R-W-S-H-Darg-W-Bpa4-P-Dabt14-DO3A10CM (C-terminal chelator)) [BRU-3042]
EC50 [3]: 200 nM
EC50 [1]: 200 nM

B6: BRU-3096 (peptide)
peptide: XXRWSHXWXPX
modifications: N-terminal DO3A10CM; Dap linker before 1; Dnal2 at 1; Darg at 6; Bpa4 at 8; azaGly-NH2 at 10
EC50 [3]: 370 nM
EC50 [1]: 370 nM

XHWSHXWXPX (as printed: DO3A10CM-Dnal1-His-Trp-Ser-His-Darg-Trp-Bpa4-Pro-azaGly-NH2) [BRU-2869]
EC50 [3]: 360 nM
EC50 [4]: 360 nM
EC50 [1]: 360 nM

B7: BRU-3099 (peptide)
peptide: XXRWSHXWXPX
modifications: N-terminal DO3A10CM; Dlys linker before 1; Dnal2 at 1; Darg at 6; Bpa4 at 8; azaGly-NH2 at 10
EC50 [3]: 440 nM
EC50 [1]: 440 nM

XRWSHXWXP (as printed: Sar-R-W-S-H-Darg-W-Bpa4-P-bap14p-DO3A10CM (C-terminal chelator)) [BRU-3044]
EC50 [3]: 240 nM
EC50 [1]: 240 nM

B8: BRU-2733 (peptide)
peptide: GHWSHXWXPX
modifications: as printed: DO3A10CM-Gly-His-Trp-Ser-His-Darg-Trp-Bpa4-Pro-azaGly-NH2 (Gly is AA1)
EC50 [1]: 1180 nM

B9: ^177Lu-BRU-2440 (peptide)
peptide: DO3A10CM-[Sar]HWSH[dR]WYP[azaGly]-NH2
modifications: reading uncertain; also: 177Lu complexed by DO3A10CM, printed as 177Lu-DO3A10CM-Sar-His-Trp-Ser-His-Darg-Trp-Tyr-Pro-azaGly-NH2
% Bound [5]: 0.21%

B10: BRU-2992 (peptide)
peptide: XRWSHXWXP
modifications: Ac-Dnal2 at 1; Darg at 6; Bpa4 at 8; C-terminal Da15o3pt linker carrying DO3A10CM
EC50 [3]: 470 nM
EC50 [1]: 470 nM

XRWSHXWXP (as printed: Sar-R-W-S-H-Darg-W-Bpa4-P-Dapt15-DO3A10CM (C-terminal chelator)) [BRU-3085]
EC50 [3]: 400 nM
EC50 [1]: 400 nM

XRWSHXWXP (as printed: Sar-R-W-S-H-Darg-W-Bpa4-P-Bampy26-DO3A10CM (C-terminal chelator)) [BRU-3080]
EC50 [3]: 230 nM
EC50 [1]: 230 nM

B11: BRU-3100 (peptide)
peptide: XRWSHXWXP
modifications: N-terminal DO3A10CM; Da48oa linker before 1; Dnal2 at 1; Darg at 6; Bpa4 at 8; C-terminal Da15o3pt at 10
EC50 [3]: 140 nM
EC50 [1]: 140 nM

XRWSHXWXP (as printed: Sar-R-W-S-H-Darg-W-Bpa4-P-Da15o3pt-DO3A10CM (C-terminal chelator)) [BRU-3039]
EC50 [3]: 280 nM
EC50 [1]: 280 nM

B12: BRU-2968 (peptide)
peptide: XRWSHXWXP
modifications: N-terminal DO3A10CM; Dnal2 at 1; Darg at 6; Bpa4 at 8; C-terminal Da15o3pt at 10
EC50 [3]: 240 nM
EC50 [4]: 240 nM
EC50 [1]: 240 nM

XRWSHXWXP (as printed: Sar-R-W-S-H-Darg-W-Bpa4-P-Dae-DO3A10CM (C-terminal chelator)) [BRU-3103]
EC50 [3]: 170 nM
EC50 [1]: 170 nM

B13: BRU-3097 (peptide)
peptide: KXRWSHXWXPX
modifications: N-terminal DO3A10CM; Lys linker before 1; Dnal2 at 1; Darg at 6; Bpa4 at 8; azaGly-NH2 at 10
EC50 [3]: 450 nM
EC50 [1]: 450 nM

XRWSHXWXP (as printed: Dnal2-R-W-S-H-Darg-W-Bpa4-P-Da15o3pt-DO3A10CM (C-terminal chelator)) [BRU-2991]
EC50 [3]: 210 nM
EC50 [1]: 210 nM

B14: BRU-3002 (peptide)
peptide: XXRWSHXWXPX
modifications: N-terminal DO3A10CM; Gly-Abz4 linker before 1; Dnal2 at 1; Darg at 6; Bpa4 at 8; azaGly-NH2 at 10
EC50 [3]: 500 nM
EC50 [1]: 500 nM

XRWSHXWX (as printed: Sar-R-W-S-H-Darg-W-Bpa4-Am2prd-DO3A10CM (C-terminal chelator)) [BRU-3117]
EC50 [3]: 340 nM
EC50 [1]: 340 nM

XRWSHXWXPG (as printed: Dnal2-R-W-S-H-Darg-W-Bpa4-P-G-Dabt14-DO3A10CM (C-terminal chelator)) [BRU-2990]
EC50 [1]: 30200 nM

B15: ^177Lu-BRU-2443 (peptide)
peptide: XHWSHXWXPX
modifications: 177Lu held by the N-terminal DO3A10CM: 177Lu-DO3A10CM-Sar-His-Trp-Ser-His-Darg-Trp-Bpa4-Pro-azaGly-NH2
% Bound [5]: 1.8%

B16: BRU-3073 (peptide)
peptide: XRWSHXWXPP
modifications: as printed: Sar-R-W-S-H-Darg-W-Bpa4-P-P-Az23po-Da15o3pt-DO3A10CM (C-terminal chelator)
EC50 [1]: 840 nM
